Experimental data published in US20060239990A1, “Protein Arginine N-Methyltransferase 2 (PRMT-2)” (priority 2003, published 2006).

What was measured:
NF-κB = NF-κB luciferase reporter assay in 293T cells; type: cell-based, human; details: for NF-κB activity: 1 μg expression construct, 100 ng 5 κB luciferase reporter; for IKK2- and p65-induced NF-κB activity: κB luciferase reporter, 48 hrs
Protocol: Cell culture, transfection, and reporter gene assays. The E1A-transformed, human kidney cell line, 293, and NIH-3T3 cells were maintained in Dulbecco's Modified Eagle Medium (DMEM) supplemented with 10% fetal calf serum and penicillin-streptomycin at 37° C. in 5% carbon dioxide in tissue culture grade Petri dishes. PRMT-2−/− mouse embryo fibroblasts (MEFs) and wild type MEFs were prepared from day 13.5 embryos and maintained in DMEM supplemented with 10% fetal calf serum. MEFs at passage 4 were used in this experiment. Lipofectamine Plus™ reagent (Boehringer Mannheim) was used to transfect both 293 and NIH-3T3 cells according to directions from the manufacturer. […] TNF-α stimulation of cells was done using recombinant TNF-α (200 U/ml) for 12 hours. […] CAT assays were performed essentially as described in Leung, K. & Nabel, G. J. Nature 333, 776-778 (1988). To analyze the κB-reporter activity in MEFs, cells were transfected with the reporter (2×kB-Luc) and PRL-TK vector (Promega) using FuGENE6 transfection reagent (Roche). Luciferase activity was analyzed by Dual-Luciferase Reporter Assay System (Promega).
To map the domains responsible for inhibition of HIV transcription, truncation and point mutations were made in PRMT2 (FIG. 1D) and co-transfected with an NF-κB reporter in 293T cells. PRMT2-A represents an alternatively spliced form of PRMT2 found in the expressed sequence tag (EST) database. This isoform contains the first 218 amino acids of PRMT2 and differs from full length PRMT2 by the absence of the less conserved COOH-terminal domain. PRMT2-N was generated by introducing a stop codon after amino acid 95 before the putative Ado-Met domain of PRMT2. To analyze the role of the Ado-Met domain further, another mutant, PRMT2-4A, was prepared in which 141ILDV144 (SEQ ID NO:5) in this region were altered to four consecutive alanines to compare the effects of point mutations in this highly conserved region.
The mechanism and site of action of PRMT2 in the NF-κB signaling pathway was further defined by co-transfection of PRMT2 and its mutants with different regulators in this pathway with an NF-κB reporter in 293T cells (FIG. 2D).

[1] = test system: HIV-1, HIV-2, HTLV-1, or HTLV-2 reporter plasmids; test: CAT reporter assay with viral reporter plasmids in 293 cells; type: cell-based, human
Protocol: Cell culture, transfection, and reporter gene assays. The E1A-transformed, human kidney cell line, 293, and NIH-3T3 cells were maintained in Dulbecco's Modified Eagle Medium (DMEM) supplemented with 10% fetal calf serum and penicillin-streptomycin at 37° C. in 5% carbon dioxide in tissue culture grade Petri dishes. PRMT-2−/− mouse embryo fibroblasts (MEFs) and wild type MEFs were prepared from day 13.5 embryos and maintained in DMEM supplemented with 10% fetal calf serum. MEFs at passage 4 were used in this experiment. Lipofectamine Plus™ reagent (Boehringer Mannheim) was used to transfect both 293 and NIH-3T3 cells according to directions from the manufacturer. […] TNF-α stimulation of cells was done using recombinant TNF-α (200 U/ml) for 12 hours. Transfected cells were harvested at 36 hours, and CAT activity was assayed on 10 to 100 μg of protein from whole cell extracts. CAT assays were performed essentially as described in Leung, K. & Nabel, G. J. Nature 333, 776-778 (1988). To analyze the κB-reporter activity in MEFs, cells were transfected with the reporter (2×kB-Luc) and PRL-TK vector (Promega) using FuGENE6 transfection reagent (Roche). Luciferase activity was analyzed by Dual-Luciferase Reporter Assay System (Promega). […]

IκB-α = test: Co-immunoprecipitation with endogenous IκB-α in 293 cells; type: binding, human; details: HA-tagged constructs in 293 cells
Excerpt: A polyclonal antibody to recombinant PRMT2 was used to examine the association between endogenous PRMT2 and IκB-α in vivo. […] The domain of IκB-α required for association with PRMT2 was mapped using in vivo immunoprecipitation assays where HA-tagged PRMT2 was coexpressed with truncation mutants of His-tagged IκB-α (FIG. 5B) in 293 cells. The ankyrin domain was both necessary and sufficient for this association (FIG. 5D, lanes 1 and 2). The domain of PRMT2 that interacted with endogenous IκB-α was mapped by immunoprecipitation following expression HA-tagged PRMT2 truncation mutants (FIG. 5C). […] When the ratios of PRMT2 or PRMT2-A binding to IκB-α were compared, both interacted with IκB-α with similar affinity.

p50/p65 complex = test: NF-κB DNA binding assay (EMSA); type: biochemical, human; details: 293 cells cotransfected with p50 and p65 expression vectors
Protocol: DNA binding assay. Electrophoretic mobility shift assays (EMSAs) were conducted on 10 μg of nuclear extract protein from 293 cells transiently transfected with pRSV p50/p65 expression constructs and pVR1012 PRMT-2-A/PRMT-2-N expression constructs. A modified Dignam procedure (Dignam et al. Nucleic Acids Res. 11, 1475-1489 (1983)) was used to prepare nuclear extracts from 293 cells. Perkins, N. D. et al. Science 275, 523-527 (1997). NF-KB DNA binding was assayed using a double-stranded 32P-labeled κB probe (Geneka Biotechnology). DNA binding assays were performed as described previously. Perkins et al. Science 275, 523-527 (1997). Supershifting was done using NF-κB p65 (C-20) and NF-κB p50 (H-119) (Santa Cruz). GST-PRMT-2-A fusion proteins were expressed in BL21 (DE3) cells and extracts were prepared as described previously. Smith, D. B. & Johnson, K. S. Gene 67, 31-40 (1988).

STAT3 = STAT3 arginine methylation in transfected HEK293 cells; type: cell-based; details: 24 hr after transfection, α-metR immunoblot
Protocol: Vascular smooth muscle cells (VSMC) were prepared from the thoracic aorta of 12-week-old-male wild-type and PRMT-2^−/− mice by the explant method. Mouse embryo fibroblasts (MEFs) were prepared from 13.5-day wild-type and PRMT-2^−/− embryos. VSMCs and MEFs were cultured in Dulbecco's modified Eagle's medium (DMEM) containing 10% fetal calf serum (FCS) at 37° C. in a humidified atmosphere of 95% air-5% CO2. The integrity of PRMT-2 expression in the established VSMCs and MEFs lines was confirmed by Western and immunofluorescence analysis (data not shown). Quiescent VSMC (3-5th passages) that had been serum-starved for 48 hr were used in the following experiments. HEK293 cells were also grown in DMEM plus 10% FCS and were transiently transfected with FuGENE6 transfection reagent (Roche Applied Science, Indianapolis, Ind.) according to the manufacture's protocol. For each transfection, 2 μg of expression construct for mouse PRMT-2 and 8 μg for mouse STAT3 were used. After 24-48 hr of transfection, cells were used for the following experiments.
Immunoprecipitation of STAT3 was performed as follows. […]

Chain of IκB-α (P25963 whole entry, the tested form may be a part): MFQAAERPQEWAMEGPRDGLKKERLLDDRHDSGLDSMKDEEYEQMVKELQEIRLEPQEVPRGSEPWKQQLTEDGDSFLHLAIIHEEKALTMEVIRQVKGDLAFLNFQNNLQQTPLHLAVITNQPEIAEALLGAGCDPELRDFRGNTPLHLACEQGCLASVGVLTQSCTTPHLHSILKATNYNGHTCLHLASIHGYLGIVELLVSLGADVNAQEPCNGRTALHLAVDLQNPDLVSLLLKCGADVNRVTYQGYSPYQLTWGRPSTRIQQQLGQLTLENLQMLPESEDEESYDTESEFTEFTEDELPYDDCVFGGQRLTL

B1: PRMT2-A: alternatively spliced form containing the first 218 amino acids of PRMT-2, SEQ ID NO:3 (protein)
chain: MATSGDCPRSESQGEEPAECSEAGLLQEGVQPEEFVAIADYAATDETQLSFLRGEKILILRQTTADWWWGERAGCCGYIPANHVGKHVDEYDPEDTWQDEEYFGSYGTLKLHLEMLADQPRTTKYHSVILQNKESLTDKVILDVGCGTGIISLFCAHYARPRAVYAVEASEMAQHTGQLVLQNGFADIITVYQQKVEDVVLPEKVDVLVSEWMGTCLL
modifications: A synthetic PRMT-2-A mutant polypeptide
NF-κB activity (NF-κB): inhibited NF-κB activity | IKK2- and p65-induced NF-κB activity (NF-κB): inhibited both IKK2- and p65-induced NF-κB activity | expression from HIV-2 or HTLV reporter plasmids [1]: No significant reduction | HIV-1 CAT expression ([1]; HIV-1 reporter plasmid): substantially inhibited | association with endogenous IκB-α (IκB-α): interacted

B2: PRMT2-N: generated by introducing a stop codon after amino acid 95 of PRMT-2, SEQ ID NO:4 (protein)
chain: MATSGDCPRSESQGEEPAECSEAGLLQEGVQPEEFVAIADYAATDETQLSFLRGEKILILRQTTADWWWGERAGCCGYIPANHVGKHVDEYDPED
modifications: A synthetic PRMT-2-N polypeptide
NF-κB activity (NF-κB): did not | IKK2- and p65-induced NF-κB activity (NF-κB): unable to block this effect | NF-κB DNA binding in nuclear extracts of transfected cells (p50/p65 complex): did not affect NF-κB DNA binding | association with endogenous IκB-α (IκB-α): did not associate

B3: mutant PRMT-2: mutated PRMT-2 lacking functional Ado-Met domain (the PRMT-2-4A mutant according to b407) (protein)
chain: MATSGDCPRSESQGEEPAECSEAGLLQEGVQPEEFVAIADYAATDETQLSFLRGEKILILRQTTADWWWGERAGCCGYIPANHVGKHVDEYDPEDTWQDEEYFGSYGTLKLHLEMLADQPRTTKYHSVILQNKESLTDKVAAAAGCGTGIISLFCAHYARPRAVYAVEASEMAQHTGQLVLQNGFADIITVYQQKVEDVVLPEKVDVLVSEWMGTCLLFEFMIESILYARDAWLKEDGVIWPTMAALHLVPCSADKDYRSKVLFWDNAYEFNLSALKSLAVKEFFSKPKYNHILKPEDCLSEPCTILQLDMRTVQISDLETLRGELRFDIRKAGTLHGFTAWFSVHFQSLQEGQPPQVLSTGPFHPTTHWKQTLFMMDDPVPVHTGDVVTGSVVLQRNPVWRRHMSVALSWAVTSRQDPTSQKVGEKVFPIWR
Stat3 methylation (STAT3): failed to evoke STAT3 methylation
